From publication PMC3299563, “Salt Bridges Regulate Both Dimer Formation and Monomeric Flexibility in HdeB and May Have a Role in Periplasmic Chaperone Function” (Journal of Molecular Biology, 2011) come the findings set out here.

The target of series [1] is HdeB E41Q, C-terminal His6 E41Q (UniProt P0AET2). The experiment in a line: Intrinsic tryptophan fluorescence (emission maximum, intensity, acrylamide Stern-Volmer quenching constant, steady-state anisotropy) as a function of pH. Conditions: pH 1.5-7.5; 20 °C; Not stated as a number. It varies with the McIlvaine mixing ratio; 10 mM KCl below pH 2.6.; McIlvaine buffer (mixtures of 0.1 M citric acid and 0.2 M Na2HPO4) for pH 2.6-7; 10 mM KCl adjusted with HCl for more ac.

The target in the next series is Asp76 (UniProt position 76, TLNETDLTQIP). The experiment in a line: fluorescence. Conditions: 20 °C; not stated (McIlvaine buffer: mixtures of 0.1 M citric acid and 0.2 M Na2HPO4; 10 mM KCl adjusted with HCl for more acid solutions); McIlvaine buffer (citric acid / Na2HPO4) for pH 2.6-7; 10 mM KCl/HCl for more acid solutions; 50 uM protein, no ligand; dimer at neutral pH, monomer below about pH 3.

The target of series [2] is HdeB (acid stress chaperone HdeB), wild type, C-terminal His6 (UniProt P0AET2). The experiment in a line: Intrinsic tryptophan fluorescence (emission maximum, intensity, acrylamide Stern-Volmer quenching constant, steady-state anisotropy) as a function of pH. The conditions noted are these: pH 1.5-7.5; 20 °C; Not stated as a number. It varies with the McIlvaine mixing ratio; 10 mM KCl below pH 2.6.; McIlvaine buffer (mixtures of 0.1 M citric acid and 0.2 M Na2HPO4) for pH 2.6-7; 10 mM KCl adjusted with HCl for more ac.

Series [3] deals with the molecule itself. In words: SEC; gel filtration at neutral pH (pH 7). On the technique in general: Size exclusion chromatography separates by hydrodynamic size, large species first.
Series [4] deals with the molecule itself. The experiment in a line: other fluorescence titration; emission maximum against HdeB concentration (1-100 μM, as monomers) at pH 7.5; dimer to monomers.
Series [5] deals with the molecule itself. The experiment in a line: other fluorescence titration; intrinsic tryptophan fluorescence (emission maximum, acrylamide quenching, anisotropy) against pH 1.5 to 7.5; 50 μM HdeB, McIlvaine buffer, 20 °C; apparent pKa; neutral side of the transition.
Series [6] deals with the molecule itself. In words: crystal structure; methylated HdeB-His6 at 15 mg/ml; 50% (v/v) polyethylene glycol 400, 0.1 M acetate pH 4.5, 0.2 M Li2SO4; 1.5 Å; dimer found with PISA.

Substitutions are numbered along the chain they refer to. In names and notes the source's numbering stands.

HdeB E41Q, C-terminal His6 E41Q: the “shift of the apparent pKa of dimer dissociation relative to wild type (50 uM)” value in series [1] was “apparent pKa ∼ 0.5 pH units higher than that of wild type”.
Take “Acid stress chaperone HdeB H59N (His6-tagged) (Escherichia coli; H59N)”: in the series with Asp76, the pKa (in general, the pH at which an ionisable group is half protonated) was 3.5.
With “HdeB (acid stress chaperone HdeB), wild type, C-terminal His6”, in series [2], the “effective pKa of dimer dissociation (midpoint of the dimer-to-monomer transition at 50 uM)” value was “effective pKa ≈ 3 for dissociation of the dimer”.
As to “Acid stress chaperone HdeB (HdeB-His6 WT) (Escherichia coli)”, the pKa with Asp76 is 2.9.

B1: HdeB D76N (natural protein, E. coli, UniProt P0AET2 30-108, looked up)
chain: ANESAKDMTCQEFIDLNPKAMTPVAWWMLHEETVYKGGDTVTLNETNLTQIPKVIEYCKKNPQKNLYTFKNQASNDLPN
notes: HdeB, E. coli, with D76N; residue numbers count on the precursor; Probably made from the HdeB-His6 construct; also called D67N (as printed in two places)
Regarding B1, in series [3], the binding result is “binds”.

B2: HdeB-His6 WT (natural protein, E. coli, UniProt P0AET2 30-108, looked up)
chain: B1 chain with N47D
notes: HdeB, E. coli periplasmic acid-stress chaperone; begins at A30; A30 to A102 ordered in the crystal plus six disordered C-terminal residues; residue numbers count on the precursor; Cloned with hdeA (hdeAB genes) in pTrc99A; primers are in the Supplementary Data; also called HdeB WT; wild type; source: E. coli MG1655ΔhdeAB, plasmid pTrcHdeABHis6, 1 mM IPTG, purified (Ni resin, gel filtration); not …
On to B2, for which the stoichiometry N (as a rule, the number of molecules, sites or subunits per partner or assembly) in series [3] came to 2. The dissociation constant (Kd) (commonly the free concentration of one partner at which half of the binding sites on the other are occupied at equilibrium, for simple one-to-one binding) in series [4] was < 1 µM.

B3: HdeB H59N (natural protein, E. coli, UniProt P0AET2 30-108, looked up)
chain: B1 chain with H30N, N47D
notes: HdeB, E. coli, with H59N; residue numbers count on the precursor; Probably made from the HdeB-His6 construct; also called H59N mutant
On to B3, for which the binding result in series [5] is “binds”.

B4: HdeB (methylated) (natural protein, E. coli, UniProt P0AET2 30-108, looked up)
chain: B1 chain with N47D
modifications: reductively methylated lysines: doubly methylated K48, K88 and K93; some modification of K35, K65, K89 and K99; K82 apparently unmodified
notes: HdeB, E. coli; A30 to A102 ordered, six C-terminal residues and the His-tag disordered; residue numbers count on the precursor; A selenomethionine variant, treated identically, was used for phasing only; also called methylated HdeB-His6; HdeB after reductive methylation; source: E. coli MG1655ΔhdeAB, purified (Ni resin, gel filtration), then reductive methylation and gel filtration; not shown: …
As to B4, the “stoichiometry N” value in series [6] turned out to be 2.

B5: HdeB E41Q (natural protein, E. coli, UniProt P0AET2 30-108, looked up)
chain: B1 chain with E12Q, N47D
notes: HdeB, E. coli, with E41Q; residue numbers count on the precursor; The methods speak of 'purified HdeB-His6 WT and E41Q samples'; probably the same construct and host as the wild type; also called E41Q mutant; source: purified mutant protein
In series [4], B5 registered a dissociation constant (Kd) of 34 µM.
